According to patent US20150253303A1 (FORSCHUNGSVERBUND BERLIN E V, published 2015):

B1: LRRC8E, endogenous (native) human protein (other, UniProt Q6NSJ5 1-796, looked up)
chain: MIPVAEFKQFTEQQPAFKVLKPWWDVLAEYLTVAMLMIGVFGCTLQVTQDKIICLPNHELQENLSEAPCQQLLPRGIPEQIGALQEVKGLKNNLDLQQYSFINQLCYETALHWYAKYFPYLVVIHTLIFMVCTSFWFKFPGTSSKIEHFISILGKCFDSPWTTRALSEVSGENQKGPAATERAAATIVAMAGTGPGKAGEGEKEKVLAEPEKVVTEPPVVTLLDKKEGEQAKALFEKVKKFRMHVEEGDILYTMYIRQTVLKVCKFLAILVYNLVYVEKISFLVACRVETSEVTGYASFCCNHTKAHLFSKLAFCYISFVCIYGLTCIYTLYWLFHRPLKEYSFRSVREETGMGDIPDVKNDFAFMLHLIDQYDSLYSKRFAVFLSEVSESRLKQLNLNHEWTPEKLRQKLQRNAAGRLELALCMLPGLPDTVFELSEVESLRLEAICDITFPPGLSQLVHLQELSLLHSPARLPFSLQVFLRDHLKVMRVKCEELREVPLWVFGLRGLEELHLEGLFPQELARAATLESLRELKQLKVLSLRSNAGKVPASVTDVAGHLQRLSLHNDGARLVALNSLKKLAALRELELVACGLERIPHAVFSLGALQELDLKDNHLRSIEEILSFQHCRKLVTLRLWHNQIAYVPEHVRKLRSLEQLYLSYNKLETLPSQLGLCSGLRLLDVSHNGLHSLPPEVGLLQNLQHLALSYNALEALPEELFFCRKLRTLLLGDNQLSQLSPHVGALRALSRLELKGNRLEALPEELGNCGGLKKAGLLVEDTLYQGLPAEVRDKMEEE
notes: whole, on cells; Untagged endogenous protein in cell lysates; also called native LRRC8E
B2: LRRC8A (leucine-rich repeat-containing protein 8, family member A), human (other, UniProt Q8IWT6 1-810, looked up)
chain: MIPVTELRYFADTQPAYRILKPWWDVFTDYISIVMLMIAVFGGTLQVTQDKMICLPCKWVTKDSCNDSFRGWAAPGPEPTYPNSTILPTPDTGPTGIKYDLDRHQYNYVDAVCYENRLHWFAKYFPYLVLLHTLIFLACSNFWFKFPRTSSKLEHFVSILLKCFDSPWTTRALSETVVEESDPKPAFSKMNGSMDKKSSTVSEDVEATVPMLQRTKSRIEQGIVDRSETGVLDKKEGEQAKALFEKVKKFRTHVEEGDIVYRLYMRQTIIKVIKFILIICYTVYYVHNIKFDVDCTVDIESLTGYRTYRCAHPLATLFKILASFYISLVIFYGLICMYTLWWMLRRSLKKYSFESIREESSYSDIPDVKNDFAFMLHLIDQYDPLYSKRFAVFLSEVSENKLRQLNLNNEWTLDKLRQRLTKNAQDKLELHLFMLSGIPDTVFDLVELEVLKLELIPDVTIPPSIAQLTGLKELWLYHTAAKIEAPALAFLRENLRALHIKFTDIKEIPLWIYSLKTLEELHLTGNLSAENNRYIVIDGLRELKRLKVLRLKSNLSKLPQVVTDVGVHLQKLSINNEGTKLIVLNSLKKMANLTELELIRCDLERIPHSIFSLHNLQEIDLKDNNLKTIEEIISFQHLHRLTCLKLWYNHIAYIPIQIGNLTNLERLYLNRNKIEKIPTQLFYCRKLRYLDLSHNNLTFLPADIGLLQNLQNLAITANRIETLPPELFQCRKLRALHLGNNVLQSLPSRVGELTNLTQIELRGNRLECLPVELGECPLLKRSGLVVEEDLFNTLPPEVKERLWRADKEQA
notes: whole, on cells; Used for endogenous LRRC8A and for transfected LRRC8A; Co-IPs were done on detergent lysates; also called endogenous LRRC8A; native LRRC8A

Key:
[1] = target: B2; test: immunoprecipitation of endogenous proteins from WT HEK lysate
[2] = target: LRRC8D-GFP (human LRRC8D fused C-terminally to GFP) (human, UniProt Q7L1W4 1-858; P42212 1-238 = GFP); test: cell-based or functional assay
[3] = target: LRRC8E-GFP (human LRRC8E fused C-terminally to GFP) (human, UniProt Q6NSJ5 1-796; P42212 1-238 = GFP); test: cell-based or functional assay
[4] = target: LRRC8C-GFP (human LRRC8C fused C-terminally to GFP) (human, UniProt Q8TDW0 1-803; P42212 1-238 = GFP); test: cell-based or functional assay
[5] = target: GFP-ClC-1 (human ClC-1 Cl- channel in pEGFP-C1) (human, UniProt P42212 1-238 = GFP; P35523 1-988); test: co-immunoprecipitation from double-transfected HEK cells, Western blot
From the text: The changed banding pattern of the mutant might result from altered posttranslational modifications. n.t., non-transfected. (C) Immunofluorescence using HA antibody of non-permeabilized versus permeabilized HeLa cells transfected with GFPLRRC8A carrying an HA-tag as indicated. Overlays of GFP (green) and HA (red) labeling. Insets show exclusively HA-staining. Scale bar, 20 μm. (D) LRRC8A co-precipitated epitopetagged LRRC8B through LRRC8E in double-transfected HEK cells. LRRC8B and LRRC8D were poorly expressible. […] (F) Epitope-tagged LRRC8B through LRRC8E co-precipitated LRRC8A. (G) Heteromerization of endogenous LRRC8 proteins. LRRC8A co-precipitated LRRC8E (for which a suitable antibody was available) in immunoprecipitation with an LRRC8A antibody from wild-type (WT) HEK cell lysate, but not from the LRRC8A−/− knockout (KO, clone 3E7). […] Lysate equivalent to 25% of input was loaded as reference (input).
For co-immunoprecipitation, HEK cells were co-transfected with plasmids (6 μg total) encoding myc-tagged or untagged LRRC8A and N-terminal fusion constructs of LRRC8A-E or ClC-1 (or soluble GFP) on 10 cm dishes using PEI as described above. […] After four washes with 500 μl IP buffer, precipitates were eluted in 40 μl Lämmli sample buffer, separated by SDS-PAGE and analyzed by Western blot as indicated. […]

[6] = target: T1, KCC1 plasma membrane ion transporter, endogenous in HEK cells (UniProt Q9UP95 1-1085, limits assumed); test: immunoprecipitation with LRRC8A antibody from WT HEK cell lysate, Western blot
T1 construct: whole, on cells; also called SLC12A4
T1 sequence (looked up): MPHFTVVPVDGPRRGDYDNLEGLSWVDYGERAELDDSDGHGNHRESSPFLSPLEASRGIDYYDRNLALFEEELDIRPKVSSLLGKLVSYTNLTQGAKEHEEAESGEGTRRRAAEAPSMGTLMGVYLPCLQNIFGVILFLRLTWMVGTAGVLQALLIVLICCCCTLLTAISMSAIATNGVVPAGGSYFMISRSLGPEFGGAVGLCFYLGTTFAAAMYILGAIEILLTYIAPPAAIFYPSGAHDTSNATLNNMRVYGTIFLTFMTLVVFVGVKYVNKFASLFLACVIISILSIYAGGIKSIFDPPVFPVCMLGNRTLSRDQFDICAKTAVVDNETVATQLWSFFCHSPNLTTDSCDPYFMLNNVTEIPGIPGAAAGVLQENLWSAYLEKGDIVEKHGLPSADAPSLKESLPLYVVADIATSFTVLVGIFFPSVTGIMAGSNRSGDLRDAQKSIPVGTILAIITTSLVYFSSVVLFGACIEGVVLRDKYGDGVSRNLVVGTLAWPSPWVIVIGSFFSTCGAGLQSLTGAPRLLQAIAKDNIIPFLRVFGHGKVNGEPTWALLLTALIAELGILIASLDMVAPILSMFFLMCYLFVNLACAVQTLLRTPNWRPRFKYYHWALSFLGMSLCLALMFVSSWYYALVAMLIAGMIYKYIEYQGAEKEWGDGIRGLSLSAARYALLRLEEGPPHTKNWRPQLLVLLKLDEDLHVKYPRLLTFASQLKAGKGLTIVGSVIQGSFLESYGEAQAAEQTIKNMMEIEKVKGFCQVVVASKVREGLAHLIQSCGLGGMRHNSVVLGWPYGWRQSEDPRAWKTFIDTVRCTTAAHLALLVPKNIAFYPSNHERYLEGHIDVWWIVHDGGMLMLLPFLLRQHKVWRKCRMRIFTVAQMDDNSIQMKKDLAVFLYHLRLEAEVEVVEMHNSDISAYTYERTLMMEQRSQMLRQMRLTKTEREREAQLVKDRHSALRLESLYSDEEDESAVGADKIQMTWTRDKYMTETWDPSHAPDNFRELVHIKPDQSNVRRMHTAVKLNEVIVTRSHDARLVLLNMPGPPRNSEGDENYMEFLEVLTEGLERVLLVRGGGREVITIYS

Row | Binder | binding result [1] | V1/2 from Boltzmann fits (voltage-dependent inactivation of ICl(swell)) [2] | V1/2 from Boltzmann fits (voltage-dependent inactivation of ICl(swell)) [3] | V1/2 from Boltzmann fits (voltage-dependent inactivation of ICl(swell)) [4] | binding result [5] | binding result [6]
1 | B1 | binds |  |  |  |  | 
2 | B2 |  | 72.4 mV | 45.9 mV | 116 mV | no binding | no binding
